Where a chain is given by its changes, count along the chain named. Like-named read-outs stand apart in the source and are kept apart here. One block for each binder: values may come before it.
Legend:
Test in all cases: cell-based or functional assay
[1] = target: T1, IL-18 receptor (IL-18Rα and IL-18Rβ) on HEK-Blue IL-18 cells (UniProt Q13478 19-541; O95256 20-599, limits assumed)
T1 sequence (looked up) 1: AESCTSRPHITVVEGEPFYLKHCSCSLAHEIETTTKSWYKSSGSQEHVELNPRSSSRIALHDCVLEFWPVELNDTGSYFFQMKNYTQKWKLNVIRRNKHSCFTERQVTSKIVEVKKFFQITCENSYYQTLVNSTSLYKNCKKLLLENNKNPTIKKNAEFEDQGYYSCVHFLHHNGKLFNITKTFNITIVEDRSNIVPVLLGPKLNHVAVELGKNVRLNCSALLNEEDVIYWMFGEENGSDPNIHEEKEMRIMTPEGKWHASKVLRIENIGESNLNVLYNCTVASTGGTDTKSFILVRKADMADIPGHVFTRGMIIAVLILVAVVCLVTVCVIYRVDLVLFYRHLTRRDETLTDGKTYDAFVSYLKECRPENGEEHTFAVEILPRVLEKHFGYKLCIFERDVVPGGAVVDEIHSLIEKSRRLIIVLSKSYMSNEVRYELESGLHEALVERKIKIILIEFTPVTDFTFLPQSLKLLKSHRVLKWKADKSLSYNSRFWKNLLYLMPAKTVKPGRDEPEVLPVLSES
T1 sequence (looked up) 2: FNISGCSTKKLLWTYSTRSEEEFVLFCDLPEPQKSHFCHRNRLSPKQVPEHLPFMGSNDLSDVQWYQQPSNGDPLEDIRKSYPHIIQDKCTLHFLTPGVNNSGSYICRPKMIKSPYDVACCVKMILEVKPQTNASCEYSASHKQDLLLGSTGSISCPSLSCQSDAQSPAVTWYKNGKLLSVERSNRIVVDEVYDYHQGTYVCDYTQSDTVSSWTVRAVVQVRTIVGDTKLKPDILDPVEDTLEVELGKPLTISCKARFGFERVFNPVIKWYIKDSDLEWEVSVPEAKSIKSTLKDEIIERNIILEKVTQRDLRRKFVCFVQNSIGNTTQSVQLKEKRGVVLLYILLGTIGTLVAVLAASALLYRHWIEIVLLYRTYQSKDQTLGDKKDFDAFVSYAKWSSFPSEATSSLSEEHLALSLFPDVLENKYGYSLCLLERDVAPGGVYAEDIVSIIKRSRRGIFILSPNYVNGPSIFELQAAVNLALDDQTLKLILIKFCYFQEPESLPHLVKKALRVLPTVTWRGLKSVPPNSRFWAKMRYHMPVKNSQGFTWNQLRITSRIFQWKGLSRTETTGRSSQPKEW

[2] = target: T1, IL-18 receptor (IL-18Rα and IL-18Rβ) on …; remark: listed apart in the source
[3] = target: T1, IL-18 receptor (IL-18Rα and IL-18Rβ) on …; remark: listed apart in the source
[4] = target: ALK1 / BMPRII receptor pair (BMPR Type I receptor ALK1 and BMPR Type II receptor BMPRII) on cells (UniProt P37023 22-503; Q13873 27-1038, limits assumed)
Chain of ALK1 / BMPRII receptor pair (BMPR Type I receptor ALK1 and BMPR Type II receptor BMPRII) on cells (P37023 22-503 limits assumed, chain 1 of 2): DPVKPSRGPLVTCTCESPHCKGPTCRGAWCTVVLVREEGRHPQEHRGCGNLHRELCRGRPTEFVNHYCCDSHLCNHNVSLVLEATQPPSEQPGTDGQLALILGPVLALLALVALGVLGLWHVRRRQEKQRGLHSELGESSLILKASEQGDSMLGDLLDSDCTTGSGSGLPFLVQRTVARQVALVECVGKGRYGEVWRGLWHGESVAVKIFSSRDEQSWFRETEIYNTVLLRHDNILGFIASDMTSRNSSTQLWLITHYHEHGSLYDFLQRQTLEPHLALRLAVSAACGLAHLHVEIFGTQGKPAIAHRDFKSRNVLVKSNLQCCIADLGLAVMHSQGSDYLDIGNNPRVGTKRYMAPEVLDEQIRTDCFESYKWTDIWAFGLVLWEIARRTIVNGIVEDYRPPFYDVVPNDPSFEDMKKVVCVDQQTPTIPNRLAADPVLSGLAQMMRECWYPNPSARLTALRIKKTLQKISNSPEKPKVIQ
Chain of ALK1 / BMPRII receptor pair (BMPR Type I receptor ALK1 and BMPR Type II receptor BMPRII) on cells (Q13873 27-1038 limits assumed, chain 2 of 2): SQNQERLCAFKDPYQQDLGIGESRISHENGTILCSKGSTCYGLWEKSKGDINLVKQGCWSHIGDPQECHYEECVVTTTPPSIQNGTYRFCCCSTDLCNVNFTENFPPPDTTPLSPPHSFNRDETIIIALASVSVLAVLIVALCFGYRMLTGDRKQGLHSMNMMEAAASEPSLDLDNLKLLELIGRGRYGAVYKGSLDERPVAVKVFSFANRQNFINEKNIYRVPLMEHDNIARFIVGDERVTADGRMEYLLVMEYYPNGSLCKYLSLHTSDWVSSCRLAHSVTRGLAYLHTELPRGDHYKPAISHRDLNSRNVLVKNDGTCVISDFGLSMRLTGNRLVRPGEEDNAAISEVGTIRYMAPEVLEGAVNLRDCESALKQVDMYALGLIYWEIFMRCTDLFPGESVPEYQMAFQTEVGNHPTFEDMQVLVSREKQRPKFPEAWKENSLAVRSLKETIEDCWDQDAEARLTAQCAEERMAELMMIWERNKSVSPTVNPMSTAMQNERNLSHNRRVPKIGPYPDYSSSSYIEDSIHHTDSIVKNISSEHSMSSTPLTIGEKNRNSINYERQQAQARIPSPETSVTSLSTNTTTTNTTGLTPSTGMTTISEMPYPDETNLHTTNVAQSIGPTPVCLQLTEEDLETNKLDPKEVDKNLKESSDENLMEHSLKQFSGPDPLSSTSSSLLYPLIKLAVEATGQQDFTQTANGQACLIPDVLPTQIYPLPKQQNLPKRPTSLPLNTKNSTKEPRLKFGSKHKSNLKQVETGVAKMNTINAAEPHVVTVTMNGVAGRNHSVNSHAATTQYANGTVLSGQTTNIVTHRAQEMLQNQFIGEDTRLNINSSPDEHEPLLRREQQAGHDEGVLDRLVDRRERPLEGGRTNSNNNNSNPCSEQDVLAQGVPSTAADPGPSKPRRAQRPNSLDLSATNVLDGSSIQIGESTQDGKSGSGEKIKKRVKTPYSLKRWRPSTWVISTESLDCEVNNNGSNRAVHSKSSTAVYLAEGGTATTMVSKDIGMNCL

- HEK-Blue assay, % human IL18 [1]: 45 % human IL18
B1: DGL217 (bispecific antibody)
chain 1: QVQLVESGGGLVQAGGSLRLSCAASGRTFSKHAMGWFRQAPGKEREFVAAIDWSGGSTYYADSVKGRFTISRDNAKNTVYLQMDSLKPEDTAVYYCAADSYTDYAQLWLPELESEYDYWGQGTLVTVSSDKTHTCPPCPAPEAAGAPSVFLFPPKPKDTLMISRTPEVTCVVVDVSHEDPEVKFNWYVDGVEVHNAKTKPREEQYNSTYRVVSVLTVLHQDWLNGKEYKCKVSNKALPAPIEKTISKAKGQPREPQVCTLPPSRDELTKNQVSLSCAVKGFYPSDIAVEWESNGQPENNYKTTPPVLDSDGSFFLVSKLTVDKSRWQQGNVFSCSVMHEALHNHYTQKSLSLSPGWSHPQFEK
chain 2: QLQLVESGGGLVQAGGSLRLSCAASRSITFSHNVMGWYRQAPGKQRELVASIGSGGSTNYVDSVKGRATISRDNAKKTVYLQMNSLKPEDTAVYYCGVVVGVYRGSLGQGTLVTVSSEKSYGPPCPPCPAPEAAGAPSVFLFPPKPKDTLMISRTPEVTCVVVDVSHEDPEVKFNWYVDGVEVHNAKTKPREEQYNSTYRVVSVLTVLHQDWLNGKEYKCKVSNKALPAPIEKTISKAKGQPREPQVYTLPPCRDELTKNQVSLWCLVKGFYPSDIAVEWESNGQPENNYKTTPPVLDSDGSFFLYSKLTVDKSRWQQGNVFSCSVMHEALHNHYTQKSLSLSPGEPEA

- HEK-Blue assay, % human IL18 [2]: 44 % human IL18
B5: DGL218 (bispecific antibody)
chain 1: QVQLVESGGGLVQAGGSLRLSCAASGRTFSKHAMGWFRQAPGKEREFVAAIDWSGGSTYYADSVKGRFTISRDNAKNTVYLQMDSLKPEDTAVYYCAADSYTDYAQLWLPELESEYDYWGQGTLVTVSSCPPCPAPEAAGAPSVFLFPPKPKDTLMISRTPEVTCVVVDVSHEDPEVKFNWYVDGVEVHNAKTKPREEQYNSTYRVVSVLTVLHQDWLNGKEYKCKVSNKALPAPIEKTISKAKGQPREPQVCTLPPSRDELTKNQVSLSCAVKGFYPSDIAVEWESNGQPENNYKTTPPVLDSDGSFFLVSKLTVDKSRWQQGNVFSCSVMHEALHNHYTQKSLSLSPGWSHPQFEK
chain 2: not shown

- HEK-Blue assay, % human IL18 [2]: 53 % human IL18
B7: DGL220 (bispecific antibody)
chain 1: QVQLVESGGGLVQAGGSLRLSCAASGRTFSKHAMGWFRQAPGKEREFVAAIDWSGGSTYYADSVKGRFTISRDNAKNTVYLQMDSLKPEDTAVYYCAADSYTDYAQLWLPELESEYDYWGQGTLVTVSSPLAPCPPCPAPEAAGAPSVFLFPPKPKDTLMISRTPEVTCVVVDVSHEDPEVKFNWYVDGVEVHNAKTKPREEQYNSTYRVVSVLTVLHQDWLNGKEYKCKVSNKALPAPIEKTISKAKGQPREPQVCTLPPSRDELTKNQVSLSCAVKGFYPSDIAVEWESNGQPENNYKTTPPVLDSDGSFFLVSKLTVDKSRWQQGNVFSCSVMHEALHNHYTQKSLSLSPGWSHPQFEK
chain 2: not shown

- Agonist activity in DiscoverX assay, % Emax BMP9 [4]: 47 % Emax BMP9
B9: DGL947 (bispecific antibody, human IgG1, lambda)
heavy: EVQLLESGGGLVQPGGSLRLSCAASGFTFSDYYMNWIRQAPGKGLEWVSSISGGSTYYADSVKGRFTISRDNSENTLYLQMNSLRAEDTAVYYCARDFGVAGWFGQFGMDVWGQGTLVTVSSPLAPEVQLLESGGGLVQPGGSLRLSCAASGFTFSSYWMSWVRQAPGKGLEWVANINQDGSEKYYVDSMRGRFTISRDNSKNTLYLQMNSLRAEDTAVYYCAREYDYWGQGTLVTVSSASTKGPSVFPLAPSSKSTSGGTAALGCLVKDYFPEPVTVSWNSGALTSGVHTFPAVLQSSGLYSLSSVVTVPSSSLGTQTYICNVNHKPSNTKVDKKVEPKSCDKTHTCPPCPAPEAAGAPSVFLFPPKPKDTLYITREPEVTCVVVDVSHEDPEVKFNWYVDGVEVHNAKTKPREEQYNSTYRVVSVLTVLHQDWLNGKEYKCKVSNKALPAPIEKTISKAKGQPREPQVYTLPPSRDELTKNQVSLTCLVKGFYPSDIAVEWESNGQPENNYKTTPPVLDSDGSFFLYSKLTVDKSRWQQGNVFSCSVMHEALHNHYTQKSLSLSPG
light: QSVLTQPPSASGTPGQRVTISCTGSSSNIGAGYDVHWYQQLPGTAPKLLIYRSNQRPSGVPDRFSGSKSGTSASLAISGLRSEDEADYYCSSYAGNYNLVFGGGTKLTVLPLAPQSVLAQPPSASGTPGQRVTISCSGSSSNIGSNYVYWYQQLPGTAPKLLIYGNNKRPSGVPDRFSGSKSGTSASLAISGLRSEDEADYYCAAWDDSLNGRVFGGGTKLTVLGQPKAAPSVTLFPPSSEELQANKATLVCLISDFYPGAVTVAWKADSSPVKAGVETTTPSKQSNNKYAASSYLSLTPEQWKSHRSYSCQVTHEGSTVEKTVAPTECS

More lines, now with the values behind:

B2: DGL219 (bispecific antibody)
chain 1: QVQLVESGGGLVQAGGSLRLSCAASGRTFSKHAMGWFRQAPGKEREFVAAIDWSGGSTYYADSVKGRFTISRDNAKNTVYLQMDSLKPEDTAVYYCAADSYTDYAQLWLPELESEYDYWGQGTLVTVSSPLAPDKTHTCPPCPAPEAAGAPSVFLFPPKPKDTLMISRTPEVTCVVVDVSHEDPEVKFNWYVDGVEVHNAKTKPREEQYNSTYRVVSVLTVLHQDWLNGKEYKCKVSNKALPAPIEKTISKAKGQPREPQVCTLPPSRDELTKNQVSLSCAVKGFYPSDIAVEWESNGQPENNYKTTPPVLDSDGSFFLVSKLTVDKSRWQQGNVFSCSVMHEALHNHYTQKSLSLSPGWSHPQFEK
chain 2: not shown
- HEK-Blue assay, % human IL18 [2]: 35 % human IL18

B3: DGL222 (bispecific antibody)
chain 1: QVQLVESGGGLVQAGGSLRLSCAASGRTFSKHAMGWFRQAPGKEREFVAAIDWSGGSTYYADSVKGRFTISRDNAKNTVYLQMDSLKPEDTAVYYCAADSYTDYAQLWLPELESEYDYWGQGTLVTVSSEKSYGPPCPPCPAPEAAGAPSVFLFPPKPKDTLMISRTPEVTCVVVDVSHEDPEVKFNWYVDGVEVHNAKTKPREEQYNSTYRVVSVLTVLHQDWLNGKEYKCKVSNKALPAPIEKTISKAKGQPREPQVCTLPPSRDELTKNQVSLSCAVKGFYPSDIAVEWESNGQPENNYKTTPPVLDSDGSFFLVSKLTVDKSRWQQGNVFSCSVMHEALHNHYTQKSLSLSPGWSHPQFEK
chain 2: not shown
- HEK-Blue assay, % human IL18 [2]: 44 % human IL18

B4: DGL221 (bispecific antibody)
chain 1: QVQLVESGGGLVQAGGSLRLSCAASGRTFSKHAMGWFRQAPGKEREFVAAIDWSGGSTYYADSVKGRFTISRDNAKNTVYLQMDSLKPEDTAVYYCAADSYTDYAQLWLPELESEYDYWGQGTLVTVSSGGGGSGGGGSGGGGSGGGGSCPPCPAPEAAGAPSVFLFPPKPKDTLMISRTPEVTCVVVDVSHEDPEVKFNWYVDGVEVHNAKTKPREEQYNSTYRVVSVLTVLHQDWLNGKEYKCKVSNKALPAPIEKTISKAKGQPREPQVCTLPPSRDELTKNQVSLSCAVKGFYPSDIAVEWESNGQPENNYKTTPPVLDSDGSFFLVSKLTVDKSRWQQGNVFSCSVMHEALHNHYTQKSLSLSPGWSHPQFEK
chain 2: not shown
- HEK-Blue assay, % human IL18 [2]: 19 % human IL18

B6: DGL093 (bispecific antibody, IgG1)
chain 1: QVQLVESGGGLVQAGGSLRLSCAASGRTFSKHAMGWFRQAPGKEREFVAAIDWSGGSTYYADSVKGRFTISRDNAKNTVYLQMDSLKPEDTAVYYCAADSYTDYAQLWLPELESEYDYWGQGTQVTVSSDKTHTCPPCPAPEAAGGPSVFLFPPKPKDTLMISRTPEVTCVVVDVSHEDPEVKFNWYVDGVEVHNAKTKPREEQYNSTYRVVSVLTVLHQDWLNGKEYKCKVSNKALPAPIEKTISKAKGQPREPQVCTLPPSRDELTKNQVSLSCAVKGFYPSDIAVEWESNGQPENNYKTTPPVLDSDGSFFLVSKLTVDKSRWQQGNVFSCSVMHEALHNHYTQKSLSLSPG
chain 2: not shown
- HEK-Blue assay, % hu-IL-18 [3]: 65 % of human IL18 activity

B8: DGL945 (bispecific antibody, human IgG1, lambda)
heavy: B9 heavy with N35T, V62R, F107Y, W159A, Y185N, Y226F
light: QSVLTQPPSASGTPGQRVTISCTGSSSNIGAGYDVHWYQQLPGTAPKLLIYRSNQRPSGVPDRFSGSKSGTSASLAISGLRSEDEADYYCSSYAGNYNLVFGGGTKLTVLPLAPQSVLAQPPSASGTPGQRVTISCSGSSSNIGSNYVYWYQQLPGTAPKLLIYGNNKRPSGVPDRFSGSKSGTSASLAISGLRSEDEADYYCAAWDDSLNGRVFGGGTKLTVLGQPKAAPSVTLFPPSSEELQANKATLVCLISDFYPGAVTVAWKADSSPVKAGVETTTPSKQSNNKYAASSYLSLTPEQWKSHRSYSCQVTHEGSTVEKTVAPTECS
- Agonist activity in DiscoverX assay, % Emax BMP9 [4]: 78 % Emax BMP9

B10: DGL949 (bispecific antibody, human IgG1, lambda)
heavy: B9 heavy with Q106Y, F107Y, N178K, Y185N, Y226F, Y228F
light: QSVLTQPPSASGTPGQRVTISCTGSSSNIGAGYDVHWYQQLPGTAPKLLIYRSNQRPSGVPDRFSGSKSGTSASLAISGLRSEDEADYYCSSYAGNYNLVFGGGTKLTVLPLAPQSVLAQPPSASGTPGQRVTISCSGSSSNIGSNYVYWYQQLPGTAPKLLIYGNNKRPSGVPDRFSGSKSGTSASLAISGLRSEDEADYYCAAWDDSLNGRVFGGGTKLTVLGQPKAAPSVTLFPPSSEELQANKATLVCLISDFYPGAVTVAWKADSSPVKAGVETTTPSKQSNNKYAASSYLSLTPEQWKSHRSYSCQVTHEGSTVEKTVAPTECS
- Agonist activity in DiscoverX assay, % Emax BMP9 [4]: 42 % Emax BMP9

B11: DGL1146 (bispecific antibody, human IgG1, lambda)
heavy: EVQLLESGGGLVQPGGSLRLSCAASGFTFSDYYMTWIRQAPGKGLEWVSSISGGSTYYADSRKGRFTISRDNSENTLYLQMNSLRAEDTAVYYCARDFGVAGWFGQYGMDVWGQGTLVTVSSPLAPEVQLLESGGGLVQPGGSLRLSCAASGFTFSSYAMSWVRQAPGKGLEWVANINQDGSEKNYVDSMRGRFTISRDNSKNTLYLQMNSLRAEDTAVYYCAREFDYWGQGTLVTVSSASTKGPSVFPLAPSSKSTSGGTAALGCLVKDYFPEPVTVSWNSGALTSGVHTFPAVLQSSGLYSLSSVVTVPSSSLGTQTYICNVNHKPSNTKVDKKVEPKSCDKTHTCPPCPAPEAAGAPSVFLFPPKPKDTLMISRTPEVTCVVVDVSHEDPEVKFNWYVDGVEVHNAKTKPREEQYNSTYRVVSVLTVLHQDWLNGKEYKCKVSNKALPAPIEKTISKAKGQPREPQVYTLPPSRDELTKNQVSLTCLVKGFYPSDIAVEWESNGQPENNYKTTPPVLDSDGSFFLYSKLTVDKSRWQQGNVFSCSVLHEALHSHYTQKSLSLSPG
light: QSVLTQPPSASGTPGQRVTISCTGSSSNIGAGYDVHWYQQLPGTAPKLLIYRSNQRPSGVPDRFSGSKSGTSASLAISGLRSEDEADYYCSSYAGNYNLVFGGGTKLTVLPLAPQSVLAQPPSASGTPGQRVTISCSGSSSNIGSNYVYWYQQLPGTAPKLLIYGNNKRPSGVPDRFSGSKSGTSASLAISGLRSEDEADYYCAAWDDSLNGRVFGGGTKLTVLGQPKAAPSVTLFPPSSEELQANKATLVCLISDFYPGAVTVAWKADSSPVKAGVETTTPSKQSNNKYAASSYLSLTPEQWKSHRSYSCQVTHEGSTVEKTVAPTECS
- Agonist activity in DiscoverX assay, % Emax BMP9 [4]: 78 % Emax BMP9

From patent US20240383990A1 (DIAGONAL THERAPEUTICS, published 2024)
